According to publication PMC3481325:

Target: HLA A*0201 (soluble, the MHC part of the HLA A*0201-peptide complexes)
Assay: SPR

[…] peptide (Melan A 26-35)
t½ of the HLA A*0201-peptide complex: 8 h
